Data published in the supplement of paper PMC10065799, “High-throughput profiling of sequence recognition by tyrosine kinases and SH2 domains using bacterial peptide display” (eLife, 2023).

Columns and labels:
AncSZ = assay: phosphorylation enrichment, bacterial display (enrichment ratio); higher = better substrate or ligand; peptides without Tyr show the background
EPHB1 = EPHB1 (UniProt P54762); assay: as above
EPHB2 = EPHB2 (UniProt P29323); assay: as above
FGFR1 = FGFR1 (UniProt P11362); assay: as above
FGFR3 = FGFR3 (UniProt P22607); assay: as above
Fer (mouse) = assay: as above
Fes = Fes (UniProt P07332); assay: as above
Fyn = Fyn (UniProt P06241); assay: as above
Hck = Hck (UniProt P08631); assay: as above
Jak2 = Jak2 (UniProt O60674); assay: as above
MERTK = MERTK (UniProt Q12866); assay: as above
c-Abl (mouse) = assay: as above
c-Src = assay: as above
Grb2 SH2 = Grb2 SH2 (UniProt P62993); assay: SH2 binding enrichment of the phosphorylated peptide, bacterial display (enrichment ratio); higher = better substrate or ligand; peptides without Tyr show the background
SHP2-C SH2 = assay: as above
c-Src SH2 = assay: as above
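For SH2 binding enrichment of the phosphorylated peptide, bacterial display in this document: peptide library displayed on the E. coli surface as eCPX fusions, selected cells deep-sequenced, score is each peptide's frequency after selection divided by its frequency in the input.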
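For phosphorylation enrichment, bacterial display in this document: 11-residue human phosphosite peptides and single-mutation variants displayed on the E. coli surface, counted by deep sequencing, each peptide's frequency after selection divided by its frequency in the unselected input library; frequency after pTyr selection over input frequency; kinase dosed for 20-30% of maximal phosphorylation in three min.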

Sequence of EPHB2 (P29323 whole entry, looked up): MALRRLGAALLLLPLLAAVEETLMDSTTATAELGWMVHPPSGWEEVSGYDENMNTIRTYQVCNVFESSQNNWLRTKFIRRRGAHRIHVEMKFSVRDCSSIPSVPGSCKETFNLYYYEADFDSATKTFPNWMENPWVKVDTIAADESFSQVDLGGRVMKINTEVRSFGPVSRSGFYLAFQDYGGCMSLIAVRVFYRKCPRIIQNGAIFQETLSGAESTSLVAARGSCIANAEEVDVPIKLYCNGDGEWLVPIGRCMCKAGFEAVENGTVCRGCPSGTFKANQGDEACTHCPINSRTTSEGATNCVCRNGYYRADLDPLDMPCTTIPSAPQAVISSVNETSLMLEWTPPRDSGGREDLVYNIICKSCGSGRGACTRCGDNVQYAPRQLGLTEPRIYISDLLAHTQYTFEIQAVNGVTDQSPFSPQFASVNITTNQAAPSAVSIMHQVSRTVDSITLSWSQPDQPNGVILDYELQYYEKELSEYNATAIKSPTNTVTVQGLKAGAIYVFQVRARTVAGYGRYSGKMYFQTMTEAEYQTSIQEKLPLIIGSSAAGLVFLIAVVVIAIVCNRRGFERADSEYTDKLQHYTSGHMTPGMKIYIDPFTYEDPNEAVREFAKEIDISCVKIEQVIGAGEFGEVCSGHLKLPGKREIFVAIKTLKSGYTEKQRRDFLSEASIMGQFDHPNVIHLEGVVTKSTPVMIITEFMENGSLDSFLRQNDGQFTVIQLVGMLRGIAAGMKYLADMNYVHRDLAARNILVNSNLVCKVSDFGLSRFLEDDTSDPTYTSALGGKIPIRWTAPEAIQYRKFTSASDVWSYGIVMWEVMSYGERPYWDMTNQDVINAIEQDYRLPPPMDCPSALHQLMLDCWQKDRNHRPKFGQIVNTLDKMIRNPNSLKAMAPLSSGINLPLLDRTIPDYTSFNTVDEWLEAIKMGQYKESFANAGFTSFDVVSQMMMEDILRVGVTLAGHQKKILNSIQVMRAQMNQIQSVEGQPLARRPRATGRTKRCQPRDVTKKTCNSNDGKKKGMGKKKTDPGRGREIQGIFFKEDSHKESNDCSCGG
Sequence of Fyn (P06241 whole entry, looked up): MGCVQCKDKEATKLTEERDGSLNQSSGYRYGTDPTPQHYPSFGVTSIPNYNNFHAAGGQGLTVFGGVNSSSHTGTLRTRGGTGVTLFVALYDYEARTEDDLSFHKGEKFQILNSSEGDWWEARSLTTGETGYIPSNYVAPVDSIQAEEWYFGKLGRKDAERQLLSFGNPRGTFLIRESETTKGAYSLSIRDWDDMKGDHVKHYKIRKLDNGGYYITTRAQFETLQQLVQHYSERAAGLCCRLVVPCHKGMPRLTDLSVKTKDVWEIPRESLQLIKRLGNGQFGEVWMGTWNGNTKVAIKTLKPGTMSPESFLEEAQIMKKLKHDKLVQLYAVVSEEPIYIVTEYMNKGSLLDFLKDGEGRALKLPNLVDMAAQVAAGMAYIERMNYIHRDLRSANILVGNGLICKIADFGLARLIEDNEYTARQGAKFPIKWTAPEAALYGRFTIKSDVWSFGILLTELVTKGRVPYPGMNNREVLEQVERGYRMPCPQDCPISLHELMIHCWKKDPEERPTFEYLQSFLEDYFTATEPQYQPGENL
Sequence of EPHB1 (P54762 whole entry, looked up): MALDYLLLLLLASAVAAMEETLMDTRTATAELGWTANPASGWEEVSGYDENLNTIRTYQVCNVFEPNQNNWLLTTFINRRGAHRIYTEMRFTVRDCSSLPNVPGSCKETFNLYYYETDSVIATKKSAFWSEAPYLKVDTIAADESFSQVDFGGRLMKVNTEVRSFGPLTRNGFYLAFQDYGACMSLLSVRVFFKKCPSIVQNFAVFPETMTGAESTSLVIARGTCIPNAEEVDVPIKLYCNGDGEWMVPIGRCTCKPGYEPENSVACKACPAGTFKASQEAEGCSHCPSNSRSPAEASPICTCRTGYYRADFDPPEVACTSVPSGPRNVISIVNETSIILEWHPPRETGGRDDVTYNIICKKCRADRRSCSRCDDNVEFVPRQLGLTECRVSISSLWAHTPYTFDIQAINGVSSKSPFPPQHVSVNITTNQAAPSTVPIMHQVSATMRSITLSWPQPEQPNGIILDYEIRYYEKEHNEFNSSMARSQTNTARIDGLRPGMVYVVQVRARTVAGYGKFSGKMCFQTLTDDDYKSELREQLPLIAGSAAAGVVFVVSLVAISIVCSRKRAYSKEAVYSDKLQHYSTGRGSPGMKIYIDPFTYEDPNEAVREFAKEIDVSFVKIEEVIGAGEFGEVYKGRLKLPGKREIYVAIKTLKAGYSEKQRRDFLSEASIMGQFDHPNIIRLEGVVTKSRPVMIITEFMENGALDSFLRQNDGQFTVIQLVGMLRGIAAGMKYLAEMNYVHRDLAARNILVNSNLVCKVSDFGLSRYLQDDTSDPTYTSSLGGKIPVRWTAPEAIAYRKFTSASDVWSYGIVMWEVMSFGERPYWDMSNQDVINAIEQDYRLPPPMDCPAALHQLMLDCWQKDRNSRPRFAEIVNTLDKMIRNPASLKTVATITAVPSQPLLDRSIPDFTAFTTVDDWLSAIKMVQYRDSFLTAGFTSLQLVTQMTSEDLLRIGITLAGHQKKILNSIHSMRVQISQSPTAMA
Sequence of FGFR3 (P22607 whole entry, looked up): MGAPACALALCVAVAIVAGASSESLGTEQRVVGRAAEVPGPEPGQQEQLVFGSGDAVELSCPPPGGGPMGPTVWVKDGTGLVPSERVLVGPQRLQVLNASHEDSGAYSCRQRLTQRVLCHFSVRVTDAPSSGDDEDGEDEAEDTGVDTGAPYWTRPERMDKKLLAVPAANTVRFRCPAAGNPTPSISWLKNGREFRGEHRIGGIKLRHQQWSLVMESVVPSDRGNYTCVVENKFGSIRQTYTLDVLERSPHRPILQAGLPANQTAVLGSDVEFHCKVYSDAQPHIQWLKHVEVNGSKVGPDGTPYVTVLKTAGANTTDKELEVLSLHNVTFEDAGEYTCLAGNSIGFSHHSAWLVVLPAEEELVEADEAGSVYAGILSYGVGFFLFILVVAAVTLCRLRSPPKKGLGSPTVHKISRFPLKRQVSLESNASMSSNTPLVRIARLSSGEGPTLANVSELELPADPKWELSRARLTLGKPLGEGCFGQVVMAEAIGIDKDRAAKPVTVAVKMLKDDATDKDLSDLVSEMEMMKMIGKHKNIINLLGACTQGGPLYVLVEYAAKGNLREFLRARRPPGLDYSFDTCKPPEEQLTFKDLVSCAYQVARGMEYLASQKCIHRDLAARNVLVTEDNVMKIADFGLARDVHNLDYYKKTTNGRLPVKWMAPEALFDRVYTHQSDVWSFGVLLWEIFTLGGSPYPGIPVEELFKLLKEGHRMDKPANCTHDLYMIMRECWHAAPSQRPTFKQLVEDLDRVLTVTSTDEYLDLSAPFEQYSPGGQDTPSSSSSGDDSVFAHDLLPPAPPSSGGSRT
Sequence of MERTK (Q12866 whole entry, looked up): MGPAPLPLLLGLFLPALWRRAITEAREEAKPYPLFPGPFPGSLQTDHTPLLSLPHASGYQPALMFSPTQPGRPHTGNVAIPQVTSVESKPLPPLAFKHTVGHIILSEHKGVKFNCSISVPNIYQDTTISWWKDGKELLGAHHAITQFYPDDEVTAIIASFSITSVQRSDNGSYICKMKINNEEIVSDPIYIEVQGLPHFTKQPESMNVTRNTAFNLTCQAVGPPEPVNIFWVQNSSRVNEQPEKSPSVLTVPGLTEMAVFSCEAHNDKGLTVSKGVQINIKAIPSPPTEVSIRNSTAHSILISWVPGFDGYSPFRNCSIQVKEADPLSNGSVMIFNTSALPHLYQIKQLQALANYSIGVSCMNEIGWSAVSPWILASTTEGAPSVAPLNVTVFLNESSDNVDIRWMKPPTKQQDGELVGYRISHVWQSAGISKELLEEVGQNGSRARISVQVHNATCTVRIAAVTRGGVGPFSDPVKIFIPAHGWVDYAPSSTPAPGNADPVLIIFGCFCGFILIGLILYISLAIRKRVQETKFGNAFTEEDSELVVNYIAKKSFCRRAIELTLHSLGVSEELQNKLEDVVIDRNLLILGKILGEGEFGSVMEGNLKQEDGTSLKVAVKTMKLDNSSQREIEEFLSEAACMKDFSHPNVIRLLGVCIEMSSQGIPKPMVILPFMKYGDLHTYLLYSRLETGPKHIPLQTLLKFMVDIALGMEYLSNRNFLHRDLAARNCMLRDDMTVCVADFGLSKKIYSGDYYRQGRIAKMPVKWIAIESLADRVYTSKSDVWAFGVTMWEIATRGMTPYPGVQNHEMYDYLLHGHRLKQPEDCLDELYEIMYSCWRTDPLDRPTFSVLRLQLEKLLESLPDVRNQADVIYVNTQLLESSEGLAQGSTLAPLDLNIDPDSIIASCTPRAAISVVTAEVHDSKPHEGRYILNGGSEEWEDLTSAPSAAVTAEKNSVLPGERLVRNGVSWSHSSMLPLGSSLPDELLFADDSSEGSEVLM
Sequence of Hck (P08631 whole entry, looked up): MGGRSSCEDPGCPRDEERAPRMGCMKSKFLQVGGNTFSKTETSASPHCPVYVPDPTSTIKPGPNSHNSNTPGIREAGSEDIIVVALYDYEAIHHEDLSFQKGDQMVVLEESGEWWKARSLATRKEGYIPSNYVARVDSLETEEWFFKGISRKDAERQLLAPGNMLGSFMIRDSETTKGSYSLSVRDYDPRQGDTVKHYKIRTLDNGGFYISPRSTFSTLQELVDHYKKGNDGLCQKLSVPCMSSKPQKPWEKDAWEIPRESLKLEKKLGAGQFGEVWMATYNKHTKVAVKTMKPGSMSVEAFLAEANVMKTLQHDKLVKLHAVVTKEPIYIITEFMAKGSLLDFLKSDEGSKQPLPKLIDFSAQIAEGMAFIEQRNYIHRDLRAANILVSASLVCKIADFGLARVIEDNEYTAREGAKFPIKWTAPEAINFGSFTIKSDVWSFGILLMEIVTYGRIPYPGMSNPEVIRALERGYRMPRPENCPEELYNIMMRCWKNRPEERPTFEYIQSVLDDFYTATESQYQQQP

SH2 binding enrichment (Grb2 SH2) | SH2 binding enrichment (SHP2-C SH2) | SH2 binding enrichment (c-Src SH2) | Sequence | phosphorylation enrichment (AncSZ) | phosphorylation enrichment (EPHB1) | phosphorylation enrichment (EPHB2) | phosphorylation enrichment (FGFR1) | phosphorylation enrichment (FGFR3) | phosphorylation enrichment (Fer (mouse)) | phosphorylation enrichment (Fes) | phosphorylation enrichment (Fyn) | phosphorylation enrichment (Hck) | phosphorylation enrichment (Jak2) | phosphorylation enrichment (MERTK) | phosphorylation enrichment (c-Abl (mouse)) | phosphorylation enrichment (c-Src)
0.874 | 0.55 | 0.455 | GSESDYIVMPN [SCARB1_Y133] | 2.88 | 8.5 | 8.31 | 5.92 | 3.84 | 0.455 | 1.04 | 0.575 | 0.527 | 1.03 | 0.538 | 0.752 | 0.63
0.694 | 0.608 | 0.36 | GGSDCYGSLRP [MYLK_Y846_R845C] | 0.703 | 0.466 | 0.508 | 0.351 | 0.566 | 0.558 | 0.887 | 2.79 | 3.08 | 0.792 | 0.429 | 0.746 | 2.75
0.675 | 0.424 | 0.553 | YASALYGQRRS [FGF11_Y162_R163G] | 0.633 | 0.391 | 0.384 | 0.371 | 0.408 | 0.411 | 0.668 | 0.659 | 1.54 | 0.604 | 0.505 | 0.978 | 0.784
0.909 | 0.895 | 0.524 | IKNPQYFSDAC [NTRK1_Y496_E492K] | 0.648 | 0.37 | 0.415 | 0.548 | 0.591 | 0.37 | 0.74 | 0.464 | 0.418 | 0.634 | 0.344 | 0.464 | 0.473
